From publication PMC3347502

Target: long-chain neurotoxin NTII/I
Experiment: NMR titration

## α7ED/C116S/DTES (extracellular domain of human α7 nicotinic acetylcholine receptor with Cys116Ser an (domain or fragment)
  stoichiometry N: 2
